Consider 4 molecules from patent US20250268941A1 (AUTOLUS, published 2025).

Experiment [1] has as its target BCMA on the cell surface (SupT1.BCMAhigh, SupT1.BCMAlow, MM.1s, JeKo-1 cells) (human) (UniProt Q02223). The experiment can be described thus: cell-based or functional assay.
For the next experiment, the target named is T1, BCMA-Avi (Homo sapiens, UniProt Q02223, biotinylated at the AviTag (implied by detection with streptavidin-APC); position not given).
T1 construct: soluble recombinant staining reagent; also called BCMA-AviTag; BCMA-Avi/Strep-APC
T1 sequence (recombinant BCMA with AviTag, looked up): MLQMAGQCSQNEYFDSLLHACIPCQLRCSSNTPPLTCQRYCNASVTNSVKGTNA
Put plainly: flow cytometry of live CD3+ T cells transduced with CAT-41BB-ζ alone, stained with BCMA-AviTag plus streptavidin-APC; the staining concentration is not given [a]. For orientation: In flow cytometry, cells or beads pass a laser one at a time.

Experiment [2] has as its target T2, soluble BCMA ectodomain (human, UniProt Q02223 1-54).
T2 construct: extracellular domain
T2 sequence (looked up): T1 sequence (recombinant BCMA with AviTag, looked up)
Put plainly: SPR, soluble BCMA ectodomain as analyte. The method, then: (§1) FIG. 6—Surface plasmon resonance sensogram of binding kinetics between D8 IgG and BCMA is shown. BCMA starting concentration was 50 nM with serial dilutions to 0.19 nM.
(§2) D8 IgG binding to soluble BCMA ectodomain was also studied using surface plasmon resonance (FIG. 6).
A general note: SPR reads the build-up and loss of mass on a sensor chip optically.

In experiment [3] the target is T2, soluble BCMA ectodomain. The experiment can be described thus: SPR, BCMA 50 nM serially diluted to 0.19 nM. The protocol:
as §1, §2

LCAR-B38M CAR: the viable SupT1 BCMAlow targets remaining, 24 h co-culture, E:T 1:8 in experiment [1] came out at 25.5%. bb2121 CAR: the viable SupT1 BCMAlow targets remaining, 24 h co-culture, E:T 1:8 in experiment [1] was 21.1%.

B1: CAT-41BB-ζ CAR (other)
chain: QVQLQQSGPELVKPGASVKISCKASGYAFSSSWMNWVKQRPGKGLEWIGRIYPGDEDTNYSGKFKDKATLTADKSSTTAYMQLSSLTSEDSAVYFCARSLLYGDYLDYWGQGTTLTVSSGGGGSGGGGSGGGGSQIVLTQSPAIMSASPGEKVTMTCSASSSVSYMHWYQQKSGTSPKRWIYDTSKLASGVPDRFSGSGSGTSYFLTINNMEAEDAATYYCQQWNINPLTFGAGTKLELKRSDPTTTPAPRPPTPAPTIASQPLSLRPEACRPAAGGAVHTRGLDFACDIYIWAPLAGTCGVLLLSLVITLYCKRGRKKLLYIFKQPFMRPVQTTQEEDGCSCRFPEEEEGGCELRVKFSRSADAPAYQQGQNQLYNELNLGRREEYDVLDKRRGRDPEMGGKPRRKNPQEGLYNELQKDKMAEAYSEIGMKGERRRGKGHDGLYQGLSTATKDTYDALHMQALPPR
notes: Expressed on primary human T cells; also called CAT19 CAR; CAT19CAR using Campana architecture
Take B1: the binding result in the experiment with BCMA-Avi is on record as “no binding”.

B2: D8 IgG (antibody, V domains shown)
VH: EVQLVESGGGLVQPGRSLKLSCAASGFIFSDYNMAWVRQAPKKGLEWVATIIYDGSSTNHGDSVKGRFTISRDNAKSTLYLQMDSLRSEDTATYYCATRPGPFAYWGQGTLVTVS
VL: DVVLTQTPPTLSATIGQSVSISCRSSQSLLHSNGNTYLHWLLQRPGQSPQFLIYLVSGLGSGVPNRFSGSGSGTDFTLKISGVEAEDLGIYYCVHGTHAWTVGGGTKLELK
B2 yielded a Kd with soluble BCMA ectodomain [2] of 0.126 nM. In the experiment with soluble BCMA ectodomain [3], this molecule returned an off-rate constant (koff) of 0.00433 s⁻¹.

The term Kd denotes the free concentration of one partner at which half of the binding sites on the other are occupied at equilibrium, for simple one-to-one binding. Higher therefore signals lower affinity. By koff is commonly meant a measure of how fast the partners let go of each other.
